Reference: PMC7181223, “A DyP-Type Peroxidase of Pleurotus sapidus with Alkene Cleaving Activity” (Molecules, 2020)

Substrate: CCn1c(=NN=c2sc3cc(S(=O)(=O)O)ccc3n2CC)sc2cc(S(=O)(=O)O)ccc21
Assay: purified protein
Format: biochemical, Pleurotus sapidus
Settings: 100 µM H2O2, 25 mM MnSO4, optimal pH and temperature (pH 3.5, 40 °C)

B1: PsaPOX (DyP-type peroxidase of Pleurotus sapidus) (Pleurotus sapidus) (protein)
chain: MTTPAPPLDLNNIQGDILGGLPKKTETYFFFDVTNVDRFKANMTQFIPHVKTSAGIVKDREAIKEHKRQKRPGLVPMAAVNVSFSHLGLQKLGITDDLSDSSFTTGQRKDAEVLGDPGTKNGDTFTPAWEAPFLKDIHGVIFVAGDCHASVHKKLDEIKHIFGVGTSHASISEVTHVRGDVRPGQVSAHEHFGFLDGISNPAVDQFDQNPFPGQDSIRPGFILAKENGDSRAAARPDWAKDGSFLTFRYLFQMVPEFDDFLESNPIVLPGLSRKEGSELLGARIVGRWKSGAPIEITPLKDDPKLGADAQRNNNFDFGDSLVRGDQTKCPFAAHIRKTYPRNDLEGPPLNADIDNRRIIRRGIQFGPEVTSQEHHDKKTHHGRGLLFVCYSSSIDDGFHFIQQSWANAPNFPVNAVTSAGPIPPLDGVIPGFDAIIGQKVGGGIRQISGTNPNDPTTNITLPDQDFVIPRGGEYFFSPSISALKTKFAAGVASSAPQAQAPIST
notes: full-length ORF (1512 bp, 504 aa), C-terminal 6x His tag kept, S. cerevisiae alpha-factor secretion signal (pPIC9), Komagataella pfaffii GS115, Ni-NTA; monomeric
Question: B1 was tested. Which Km did it give?
Answer: 37 ± 4 µM

Question: And the kcat/Km?
Answer: 184000 ± 5000 M⁻¹ s⁻¹
